Residue numbers refer to the chain shown, from its start. One block for each binder: values may come before it.
Tests used:
[1] = molecular target: T1, GPIb on human platelets (human, UniProt P07359 17-652); assay: FACS on human platelets
T1 construct: whole, on cells; also called GPIbα; platelet GPIb

[2] = molecular target: T2, GPIb on guinea pig platelets (guinea pig); assay: FACS on guinea pig platelets
T2 construct: whole, on cells; also called guinea pig derived platelets

T1 sequence (P07359 17-652): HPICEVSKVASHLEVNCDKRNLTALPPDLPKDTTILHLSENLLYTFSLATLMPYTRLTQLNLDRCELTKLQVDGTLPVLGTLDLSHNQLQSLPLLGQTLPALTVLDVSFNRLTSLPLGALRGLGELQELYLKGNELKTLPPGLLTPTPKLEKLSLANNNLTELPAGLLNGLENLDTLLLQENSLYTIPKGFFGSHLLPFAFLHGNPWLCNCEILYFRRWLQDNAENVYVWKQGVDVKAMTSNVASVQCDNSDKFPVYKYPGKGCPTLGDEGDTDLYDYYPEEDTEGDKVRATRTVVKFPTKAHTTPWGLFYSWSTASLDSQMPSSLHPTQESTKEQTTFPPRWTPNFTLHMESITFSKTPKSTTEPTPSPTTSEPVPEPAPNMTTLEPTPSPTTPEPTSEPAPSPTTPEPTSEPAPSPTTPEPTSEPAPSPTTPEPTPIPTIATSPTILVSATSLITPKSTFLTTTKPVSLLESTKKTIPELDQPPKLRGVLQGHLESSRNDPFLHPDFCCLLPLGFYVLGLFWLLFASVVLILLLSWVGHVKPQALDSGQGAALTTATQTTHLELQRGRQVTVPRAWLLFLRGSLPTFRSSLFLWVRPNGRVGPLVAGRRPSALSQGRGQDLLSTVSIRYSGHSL

fold binding capacity relative to Y1 [1]: ~25 fold
B1: S1 scFv (scFv)
chain: EVQLVESGGGVVRPGGSLRLSCAASGFTFDLNPKVKHMWVRQAPGKGLEWVSGINWNGGSTGYADSVKGRFTISRDNAKNSLYLQMNSLRAEDTAVYYCARLRPPFLWGQGTLVTVSRGGGGSGGGGSGGGGSSELTQDPAVSVALGQTVRITCQGDSLRSYYASWYQQKPGQAPVLVIYGKNNRPSGIPDRFSGSSSGNTASLTITGAQAEDEADYYCNSRDSSGNHVVFGGGTKLTVLGAAAEQKLISEEDLNGAA

fold binding capacity relative to Y1 [2]: ~25 fold
B2: D1 scFv (scFv)
scFv: B1 chain with P104S, L107G
